Test results as given in publication PMC8971729 (Molecular Therapy Oncolytics, 2022).

Biological target: T1, human CXADR Fc chimera protein (CAR) (human, UniProt P78310)
T1 construct: also called coxsackievirus and adenovirus receptor; source: bought: R&D Systems
T1 sequence: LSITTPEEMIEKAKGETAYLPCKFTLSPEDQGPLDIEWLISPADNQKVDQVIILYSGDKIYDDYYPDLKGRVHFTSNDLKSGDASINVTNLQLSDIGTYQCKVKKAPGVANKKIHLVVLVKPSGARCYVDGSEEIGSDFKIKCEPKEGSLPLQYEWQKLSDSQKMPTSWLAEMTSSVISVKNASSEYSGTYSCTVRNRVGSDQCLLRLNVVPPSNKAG
Assay: SPR; BIAcore 3000; DSG2-Fc, CAR-Fc and CD46-His (approximately 500 RU) coupled to a CM5 chip; knob protein injected (178 uM, 5x 1:3 dilutions; single-cycle kinetics from 200 uM); 30 uL/min, PBS, 25 °C; equilibrium KD assuming 1:1 Langmuir binding
Settings: both partners purified

B1: HAdV-C5 fiber knob protein (domain or fragment)
chain: KNNDKLTLWTTPAPSPNCRLNAEKDAKLTLVLTKCGSQILATVSVLAVKGSLAPISGTVQSAHLIIRFDENGVLLNNSFLDPEYWNFRNGDLTEGTAYTNAVGFMPNLSAYPKSHGKTAKSNIVSQVYLNGDKTKPVTLTITLNGTQETGDTTPSAYSMSFSWDWSGHNYINEIFATSSYTFSYIAQE
notes: source: supplemental methods
Kd: 0.76 nM
